For 1 molecule, IC50 results are on record in patent US20200231656A1 (UNIVERSIT T HEIDELBERG, published 2020).

Assay [1] addresses T1, norovirus GII.4 2006 VLPs (full-length capsid protein VP1, virus-like particles) (norovirus GII.4 (Saga4 2006)).
T1 construct: mature; also called GII.4 VLPs
As to the kind of experiment: blocking ELISA: GII.4 VLPs pretreated with Nano-26, binding to coated PGM. (In general: An ELISA detects its analyte on a solid surface through an enzyme-linked reagent.)

For assay [2], the target named is T2, norovirus GII.10 VLPs (full-length capsid protein VP1, virus-like particles) (norovirus GII.10 (Vietnam026)).
T2 chain: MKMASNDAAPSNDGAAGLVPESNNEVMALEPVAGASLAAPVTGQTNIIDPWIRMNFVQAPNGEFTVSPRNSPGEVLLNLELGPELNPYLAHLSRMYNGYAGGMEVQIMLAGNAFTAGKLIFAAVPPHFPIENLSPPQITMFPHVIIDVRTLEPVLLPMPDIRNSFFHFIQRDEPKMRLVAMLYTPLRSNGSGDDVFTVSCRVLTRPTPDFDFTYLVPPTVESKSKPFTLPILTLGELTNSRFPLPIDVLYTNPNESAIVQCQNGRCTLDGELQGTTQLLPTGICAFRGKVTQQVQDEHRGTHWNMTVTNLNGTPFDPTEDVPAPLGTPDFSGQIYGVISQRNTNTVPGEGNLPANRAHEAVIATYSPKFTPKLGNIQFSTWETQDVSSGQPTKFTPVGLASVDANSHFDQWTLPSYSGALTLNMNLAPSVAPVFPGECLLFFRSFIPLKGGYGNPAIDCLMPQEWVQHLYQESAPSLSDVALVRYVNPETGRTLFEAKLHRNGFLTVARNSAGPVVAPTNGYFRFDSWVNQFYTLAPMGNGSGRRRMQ

Where “and” joins values, the source holds several entries; their conditions need not be identical. Identical values can stand only once.

B1: Nano-26 (VHH)
VHH: QVQLQESGGGLVQPGGSLRLSCTAPRIIFFMYDVGWYRQAPEKQRELVAQINSDVSTKYADSVKGRFTISRDNAKRTVYLQMNDLKPEDAAVYYCNVRRASADYWGQGTQVTVSS
notes: also called Nanobody Nano-26; N26; not shown: His-tag implied by detection with an anti-His-tag antibody (pHEN6C vector); its
One may read the IC50 as the midpoint of a concentration-inhibition curve. Consider B1, for which the IC50 in assay [1] was 2.4 µg/mL; in assay [2] it was 6.6 µg/mL and 3.1 µg/mL and 2.6 µg/mL and 4.3 µg/mL.
